According to publication PMC6868016:

What was measured:
[1] = biological target: ACP-GluA1ΔNTD (ACP-GluA1 with the N-terminal domain deleted) (mouse); experiment: single-molecule fluorescence tracking (TIRF), colocalization durations, single colour; living HEK293 cells, plasma membrane, 33 ms per frame, colocalization = two spots within 240 nm; duration histograms fitted with a single exponential, lifetimes corrected for photobleaching; 37 °C (monomer references ACP-TM and Halo7-TM at 22 °C); GluA1 and GluA2 homodimers also with TARP2-mGFP overexpression (lifetimes not significantly altered)
[2] = biological target: ACP-GluA1ΔNTD (ACP-GluA1 with the N-terminal domain deleted) (mouse); experiment: single-molecule fluorescence imaging (TIRF), distribution of spot signal intensities; living HEK293 cells, plasma membrane, various number densities of expressed molecules; intensity histograms of the initial ten frames fitted with the sum of four (references: two) lognormal functions for monomers, dimers, trimers, tetramers; incidental colocalizations not told apart from true assemblies; also with 0.1 mM AMPA or 10 mM L-glutamate (fractions not altered)
[3] = biological target: ACP-GluA1 (GluA1 tagged with the acyl carrier protein at its N-terminus) (mouse); experiment: single-molecule fluorescence tracking (TIRF), colocalization durations, single colour; living HEK293 cells, plasma membrane, 33 ms per frame, colocalization = two spots within 240 nm; duration histograms fitted with a single exponential, lifetimes corrected for photobleaching; 37 °C (monomer references ACP-TM and Halo7-TM at 22 °C); GluA1 and GluA2 homodimers also with TARP2-mGFP overexpression (lifetimes not significantly altered)
[4] = biological target: Halo7-GluA2 (GluA2 tagged with Halo7 at its N-terminus, pcDNA3.1B) (UniProt P23819); experiment: single-molecule fluorescence tracking (TIRF), colocalization durations, simultaneous two colours; living HEK293 cells, plasma membrane, ATTO594 on ACP tags and rhodamine110 on Halo7 tags, colocalization = within 240 nm; lifetimes corrected for photobleaching; 37 °C (ACP-TM with Halo7-TM at 22 °C)
Chain of Halo7-GluA2 (GluA2 tagged with Halo7 at its N-terminus, pcDNA3.1B) (P23819 25-883): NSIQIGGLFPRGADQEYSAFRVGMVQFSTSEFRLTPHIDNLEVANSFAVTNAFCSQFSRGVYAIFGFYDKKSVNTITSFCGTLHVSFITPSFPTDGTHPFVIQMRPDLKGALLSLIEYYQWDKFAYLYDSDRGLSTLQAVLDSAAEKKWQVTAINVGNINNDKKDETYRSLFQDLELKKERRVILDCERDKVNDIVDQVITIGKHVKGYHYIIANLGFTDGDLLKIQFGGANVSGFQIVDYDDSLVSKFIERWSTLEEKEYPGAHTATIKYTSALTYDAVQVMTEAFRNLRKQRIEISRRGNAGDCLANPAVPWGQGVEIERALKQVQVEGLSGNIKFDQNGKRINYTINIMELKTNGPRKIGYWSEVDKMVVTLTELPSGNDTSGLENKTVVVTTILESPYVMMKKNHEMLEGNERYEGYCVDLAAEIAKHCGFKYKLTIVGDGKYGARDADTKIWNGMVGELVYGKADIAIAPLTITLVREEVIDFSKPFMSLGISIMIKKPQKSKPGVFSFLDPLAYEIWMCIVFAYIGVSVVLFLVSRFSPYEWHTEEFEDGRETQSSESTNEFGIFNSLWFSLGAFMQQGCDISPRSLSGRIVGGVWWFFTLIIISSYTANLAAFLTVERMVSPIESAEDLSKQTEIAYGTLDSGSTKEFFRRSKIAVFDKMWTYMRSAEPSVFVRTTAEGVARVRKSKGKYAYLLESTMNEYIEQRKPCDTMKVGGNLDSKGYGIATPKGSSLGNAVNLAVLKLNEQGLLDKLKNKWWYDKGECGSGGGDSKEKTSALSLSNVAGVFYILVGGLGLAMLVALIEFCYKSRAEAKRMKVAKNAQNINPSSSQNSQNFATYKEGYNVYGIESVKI

[5] = biological target: Halo7-GluA1 (GluA1 tagged with Halo7 at its N-terminus, pcDNA3.1B) (mouse); experiment: as above
Target sequence in this assay (P23818 19-907): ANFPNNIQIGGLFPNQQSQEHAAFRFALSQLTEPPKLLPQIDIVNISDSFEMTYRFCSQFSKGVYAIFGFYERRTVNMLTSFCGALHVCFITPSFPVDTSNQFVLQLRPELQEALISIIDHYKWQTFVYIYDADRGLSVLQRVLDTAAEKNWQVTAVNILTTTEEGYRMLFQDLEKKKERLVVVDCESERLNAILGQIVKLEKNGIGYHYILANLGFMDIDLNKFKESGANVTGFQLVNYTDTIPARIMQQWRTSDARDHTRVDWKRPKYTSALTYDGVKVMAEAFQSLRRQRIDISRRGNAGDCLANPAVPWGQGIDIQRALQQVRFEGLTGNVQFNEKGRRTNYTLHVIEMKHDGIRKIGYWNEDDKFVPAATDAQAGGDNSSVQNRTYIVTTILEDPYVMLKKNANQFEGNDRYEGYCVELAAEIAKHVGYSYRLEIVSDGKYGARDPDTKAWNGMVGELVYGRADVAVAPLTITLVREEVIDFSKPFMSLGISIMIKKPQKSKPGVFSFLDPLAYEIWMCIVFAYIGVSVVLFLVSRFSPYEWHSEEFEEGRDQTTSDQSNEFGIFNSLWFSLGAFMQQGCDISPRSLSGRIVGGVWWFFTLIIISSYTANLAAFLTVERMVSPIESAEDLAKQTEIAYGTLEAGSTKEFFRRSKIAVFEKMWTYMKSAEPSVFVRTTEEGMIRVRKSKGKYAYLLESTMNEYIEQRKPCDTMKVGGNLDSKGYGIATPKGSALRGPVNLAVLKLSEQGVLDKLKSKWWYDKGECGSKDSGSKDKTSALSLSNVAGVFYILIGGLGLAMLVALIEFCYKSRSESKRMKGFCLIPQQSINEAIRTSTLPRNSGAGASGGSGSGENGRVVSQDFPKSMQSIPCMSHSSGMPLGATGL

[6] = biological target: Halo7-GluA1 (GluA1 tagged with Halo7 at its N-terminus, pcDNA3.1B) (mouse); experiment: single-molecule fluorescence tracking (TIRF), colocalization durations, single colour; living HEK293 cells, plasma membrane, 33 ms per frame, colocalization = two spots within 240 nm; duration histograms fitted with a single exponential, lifetimes corrected for photobleaching; 37 °C (monomer references ACP-TM and Halo7-TM at 22 °C); GluA1 and GluA2 homodimers also with TARP2-mGFP overexpression (lifetimes not significantly altered)

Chain of ACP-GluA1ΔNTD (ACP-GluA1 with the N-terminal domain deleted) (domain or fragment) (P23818 378-907, stated change not applied): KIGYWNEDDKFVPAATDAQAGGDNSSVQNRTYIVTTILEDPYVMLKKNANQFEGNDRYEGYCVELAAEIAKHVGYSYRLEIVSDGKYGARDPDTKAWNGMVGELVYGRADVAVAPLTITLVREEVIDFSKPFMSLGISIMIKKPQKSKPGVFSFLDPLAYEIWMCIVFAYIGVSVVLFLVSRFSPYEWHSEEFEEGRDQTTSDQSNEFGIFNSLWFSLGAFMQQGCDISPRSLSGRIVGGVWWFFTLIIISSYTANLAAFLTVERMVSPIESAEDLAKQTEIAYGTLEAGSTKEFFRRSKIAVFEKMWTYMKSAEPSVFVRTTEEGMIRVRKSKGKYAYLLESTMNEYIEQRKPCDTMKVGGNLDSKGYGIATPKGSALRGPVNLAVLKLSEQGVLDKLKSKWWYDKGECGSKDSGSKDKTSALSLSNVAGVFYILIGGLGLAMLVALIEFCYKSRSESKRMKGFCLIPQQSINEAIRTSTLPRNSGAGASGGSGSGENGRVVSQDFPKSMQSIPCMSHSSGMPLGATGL
Chain of ACP-GluA1 (GluA1 tagged with the acyl carrier protein at its N-terminus) (receptor) (P23818 19-907): as the sequence (P23818 19-907) above
Chain of Halo7-GluA1 (GluA1 tagged with Halo7 at its N-terminus, pcDNA3.1B) (receptor) (P23818 19-907): as above

**Q.** “ACP-GluA1ΔNTD (ACP-GluA1 with the N-terminal domain deleted) (domain or fragment)” was tested. Which colocalization lifetime, homodimer [1] did it give?
**A.** Its colocalization lifetime, homodimer is 100 ms.

**Q.** And the colocalization lifetime, homotetramer [1]?
**A.** Its colocalization lifetime, homotetramer is 41 ms.

**Q.** What about the tetramer fraction, fold smaller than that of full-length GluA1 (at 1–1.2 copies μm^−2) [2] of the same substance?
**A.** The tetramer fraction, fold smaller than that of full-length GluA1 (at 1–1.2 copies μm^−2) was 3 to 4 fold.

**Q.** For “ACP-GluA1 (GluA1 tagged with the acyl carrier protein at its N-terminus) (receptor)”, which colocalization lifetime, homodimer [3] is on record?
**A.** The colocalization lifetime, homodimer was 164 ms.

**Q.** And the colocalization lifetime, homotetramer [3]?
**A.** The colocalization lifetime, homotetramer was 98 ms.

**Q.** What about the colocalization lifetime, homotrimer [3] of the same substance?
**A.** The colocalization lifetime, homotrimer was 117 ms.

**Q.** What about the colocalization lifetime, GluA1/A2 heterodimer (average of the two tag combinations) [4] of the same substance?
**A.** The colocalization lifetime, GluA1/A2 heterodimer (average of the two tag combinations) was 334 ms.

**Q.** And the colocalization lifetime, GluA1/A2 heterotetramer (average of the two tag combinations) [4]?
**A.** Its colocalization lifetime, GluA1/A2 heterotetramer (average of the two tag combinations) is 208 ms.

**Q.** What about the exponential lifetime, GluA1/A2 heterodimer [4] of the same substance?
**A.** Its exponential lifetime, GluA1/A2 heterodimer is 335 ms.

**Q.** And the colocalization lifetime, homodimer [5]?
**A.** The colocalization lifetime, homodimer was 177 ms.

**Q.** Which colocalization lifetime, homodimer [6] does the source give for “Halo7-GluA1 (GluA1 tagged with Halo7 at its N-terminus, pcDNA3.1B) (receptor)” here?
**A.** The colocalization lifetime, homodimer was 164 ms.
